The values below come from US20240218057A1 (ROCKEFELLER UNIVERSITY, published 2024).

Positions count from the first letter of the chain named.

This assay concerns the target T1, SARS-COV-2 RBD (SARS-COV-2, UniProt P0DTC2 319-539).
T1 construct: also called WT RBD
The assay can be described thus: ELISA, RBD coated.

B1: C891 (antibody, V domains shown)
VH: EVQLVESGGGLVKPGGSLRLSCAVSGFTFSNVWMSWVRQAPGKGLEWVGRIKSKTDGGTTDYAAPVKGRFTISRDDSKNTLYLQMNSLKTEDTAVYYCTSQLWLRGPGDYWGQGTLVTVSS
VL: NFMLTQPHSVSESPGKTVTISCTGSSGSIASNYVQWYQQRPGSAPTTVIYEDNQRPSGVPDRFSGSIDSSSNSASLTISGLKTEDEADYYCQSYDSSLNWVFGGGTKLTVL
notes: IgG; V domains only
Broadly, the EC50 is the concentration that produces a half-maximal response. Turning to B1, it took 2.14 ng/mL to reach a half-maximal effect (EC50).

B2: C892 (antibody, V domains shown)
VH: EVQLVESGGGLVKPGGSLKVSCTASGFTFTDAWMSWVRQAPGKGLEWVGRIKSRAYGGTTDYGAPVQGRFTISRDDSINTLYLQMNSLTAEDTAVYYCTSQLWLRGPGDYWGQGTLVTVSS
VL: B1 VL with Q35H, S43G, S69I, A87G, S97G, L98V
notes: IgG; V domains only
As to B2, it took 1.83 ng/mL to reach a half-maximal effect (EC50).

B3: C884 (antibody, V domains shown)
VH: QVQLQQWGAGLLKPSETLSLTCVVYGGSFSAYYWSWIRQPPGKGLEWIGEINHSGSTNYKSSLQSRVTISVDTSKNQFSLKLSSVTAADTAVYYCARETGTYGTFDHWGQGTLVTVSS
VL: EIVLTQSPGTLSLSPGERATLSCRASQSVSSTYLAWYQQKPGQAPRLLIYGASSRATGIPDRFSGSGSGTDFTLTISRLEPEDFAVYYCQQYAFSVWTFGQGTKVEI
notes: IgG; V domains only
The molecule B3 had an EC50 of 4.22 ng/mL.

B4: C897 (antibody, V domains shown)
VH: QVQLVESGGGVVQPGRSLRLSCAASGFIFSHYGMHWVRQAPGKGLEWVAVILYDGSDQYYADSVKGRFTISRDNSKNTLFLEMNSLRLEDTAVYYCAKGGGQYCSHGNCYLNYFDYWGQGALVTVSS
VL: DIQMTQSPSSLSASVGDRVTITCQASQDIRDNLNWYQQKPGKAPQLLIYDASNLQPGVPSRFSGSGSGTHFTFTISRLQPEDIATYFCQQYANLPTTFGPGTKVDIK
notes: IgG; V domains only
B4 showed an EC50 of 1.88 ng/mL.

B5: C890 (antibody, V domains shown)
VH: QVQLVQSGAEVKKPGSSVKASCKASGGTFSTYTISWVRQAPGHGLEWMGRIIPIFGTTKYAQKFQGRVTITADESTTTAYLELSSLRSEDTAVYYCTINTQWDLVPRWGQGTLVTVSS
VL: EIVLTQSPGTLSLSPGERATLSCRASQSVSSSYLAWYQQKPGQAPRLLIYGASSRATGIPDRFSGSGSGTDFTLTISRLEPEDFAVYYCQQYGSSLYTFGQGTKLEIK
notes: IgG; V domains only
The molecule B5 came in with an EC50 of 9.68 ng/mL.

B6: C893 (antibody, V domains shown)
VH: EVQLVQSGAEVKKPGESLKISCKGSGYYFTRQWIGWVRQMPGKGLEWMGIIYPGDSDTRYSPSFQGQVTISADKSISTAYLQWSSLKASDTAMYYCARGGWDPAEYSSSGGGGLDAFDIWGQGTMVTVSS
VL: EIVLTQSPATLSLSPGERATLSCRASQSVSSYLAWYQQRPGRAPRLLIYDASNRATGIPGRFSGSGSGTDFSLTISSLEPEDFAVYYCQQRSSWPLTFGQGTRLEIK
notes: IgG; V domains only
As to B6, the EC50 came out at 3.73 ng/mL.

B7: C902 (antibody, V domains shown)
VH: EVQLVQSGAEVKKPGESLRISCKGSGYSFHTYWIHWVRQMPGKGLEWMGKIDPSDSYTNYSPSFQGHVTFSADRSISTAYLQWSSLKASDTATYYCARLSWSPPTRTTDEKNWFDPWGQGTLVTVSS
VL: DIQLTQSPSFLAASAGDRVTITCRASQGISSYLAWYQQKPGKAPKVLIYAASTLQSGVPSRFSGSGSGTEFTLTISSLQPEDCATYYCQQFNSDPLTFGGGTKVEIK
notes: IgG; V domains only
B7 had an EC50 of 3.39 ng/mL.

B8: C889 (antibody, V domains shown)
VH: EVQLVESGGGLVQPGGSLRLSCAVSGFTVSSNYMTWVRQAPGKGLEWVSLIYSGTSAFYADSVKGRFTISRDNSKNTLYLQMSSLRVNDTAIYYCARDLRKDDGYSYGAFDYWGQGTLVTVSS
VL: QSALTQPASVSGSPGQSITISCSGTSSDVGAHNYVSWYQQYPGKAPKLMIFDVTDRPSGVSNRFSGSKSGNTASLTISGLQAEDEADYYCTSYTTNRSWVFGGGTKVTVL
notes: IgG; V domains only
Turning to B8, the EC50 is 0.8 ng/mL.

B9: C888 (antibody, V domains shown)
VH: EVQLVESGGGLVQPGGSLRLSCAASGFTVSSNYMSWVRQAPGKGLEWVSVIYSGGSAYYADSVKGRFTISRDNSKNTLYLQMNSLRAEDTAVYYCARDLRDQDGYSYGAFDYWGQGTLVTVSS
VL: QSALTQPASVSGSPGQSITISCTGTSSDVGGYNYVSWYQQHPGKAPKLMIYDVSNRPSGVSNRFSGSKSGNTASLTISGLQAEDEADYYCSSYTSSSSWVFGGGTKLTVL
notes: IgG; V domains only
Regarding B9, the EC50 is 1.44 ng/mL.

B10: C898 (antibody, V domains shown)
VH: QVQLVQSGAEVKKPGSSVKVSCKASGGPFSSYAFTWVRQAPGQGLEWMGGIIATFGTVNYAQKFQGRVTITADEFTSTVNMELSSLRSDDTAVYYCARRDCSTTSCYDEVLYRLVDWGQGTLVTVSS
VL: EIVLTQSPGTLSLSPGERATLSCRASQSVNSDYLAWYKQKPGQAPRLLIYGTSSRATGIPDRFSGSGSGTDFTLTISRLEPDDFAVYYCQQYGNSPRTFGQGTKVEIK
notes: IgG; V domains only
For the molecule B10, the midpoint of the response, the EC50, lay at 7.6 ng/mL.

B11: C896 (antibody, V domains shown)
VH: QVQLVESGGGVVQPGRSLKLSCAASGFTFKTYGMHWVRQAPGKGLEWVAVISYDGTNDYYADSVKGRFTVSRDNSKNTLYLQMNSPRTEDTAVYYCAKAGGPYYYDTSGSFWYFDYWGQGTLVTVSS
VL: DIQMTQSPSSLSASVGDRVTITCRASQTISSYLNWYQQKSGKAPELLVYDASNLESGVPSRFSGSGSGTDFTLTISSLQPEDFATYYCQQSYSFGPGTKVDIK
notes: IgG; V domains only
On to B11, for which the midpoint of the response, the EC50, lay at 4.3 ng/mL.

B12: C878 (antibody, V domains shown)
VH: EVQLVESGGGLVQPGGSLRLSCSVSGFTFSNFAMHWVRQAPGKGLEFVSGVSSDGDITDYADSVKGRFTISRDNSKNTLYLQMSSLRPEDTAVYYCVKDKEHSTMVTIFDFWGQGTLVTVSS
VL: DIQMTQSPSSLSASVGDRVTITCRASQSISSFLNWYQQKPGKAPKLLIYAASSLQSGVPSRFSGRGSGADFTLTITSLQPEDFATYFCQQSYSSHLTFGPGTKVDIK
notes: IgG; V domains only
In turn, B12 displayed an EC50 of 2.88 ng/mL.

B13: C876 (antibody, V domains shown)
VH: EVQLVESGGGLIQPGGSLRLSCAASEFVISRNYMSWVRQAPKKGLEWVSVLYSGGSTFYADSVKGRFTISRDDSRNMLYLQMNSLRAEDTAVYYCVRDFGEFYFDYWGQGVLVTVSS
VL: EIVMTQSPTTLSVSPGERATLSCRASQSLSSNLAWYQQKPGQAPRLLIFGVSTRATGIPARFSGSGSGTEFTLTISSLQSEDFAVYYCQQYYSGPRTFGQGTKVEIK
notes: IgG; V domains only
As to B13, the EC50 worked out at 3.53 ng/mL.

B14: C895 (antibody, V domains shown)
VH: QVQLVQSGAEVKKPGSSVKVSCKASGGTFTSYAFSWVRQAPGQGLEWMGGIIPIFGTTNYAQKFQGRVTITADESTSTAYMELSSLRSEDTAVYYCARPEGCGSRTSCTPGAYYYGMDVWGQGTTVTVSS
VL: EIVLTQSPATLSLSPGERATLSCRASQSVGSYLAWYQQKPGQAPRLLIYDASNRATGIPARFSGSGSGTDFTLTISSLEPEDFAFYFCQQRNSWPPEYSFGQGTKLEIK
notes: IgG; V domains only
As for B14, it took 2.21 ng/mL to reach a half-maximal effect (EC50).

B15: C881 (antibody, V domains shown)
VH: EVQLVESGGGLIQPGGSLRLSCAVSGVAVSTNYMSWVRQAPGQGLEWVSTIYSGDTTYYSDSVKGRFTISRDNSKNTFYLQMNSLRVPDTAVYYCARLGGVFNGFNGSFDYWGQGTLVTVS
VL: QSALTQPASVSGSPGQSITISCIGTSSDFENYNLVSWYQQHPGKAPKVMIYEDTKRPSGVSNRFSGSKSANTASLTISGLQAEDEAEYYCCSYAGASTWVFGGGTRVTVV
notes: IgG; V domains only
With B15, the EC50 is 1.88 ng/mL.

B16: C900 (antibody, V domains shown)
VH: QVQLQESGPGLVKPSGTLSLTCTVSGGSINSRNWWSWVRQPPGKGLEWIGEIFHSGSTNYNPSLESRVAISIDKSHNHFSLKLTSVTAADTAVYYCARANGILDFWGQGTLVTVSS
VL: DIQMTQSPSSLSASVGDRVTITCRASQGISNSLAWYQLKPGKAPKLLLYAASTLESGVPSRFSGSGSGTNFTLTISSLQPEDFASYCCQHYYSSPRTFGQGTKVEI
notes: IgG; V domains only
As for B16, a half-maximal effect (EC50) was put at 2.54 ng/mL.

B17: C882 (antibody, V domains shown)
VH: QVQLVESGGGVVQPGRSLRLSCAASGFTFIRYNMHWVRQAPGKGLEWVAVIWYDGSNKYYADSVKGRFTISRDNSKNTLYLQMNSLRAEDTAVYYCARDPMIVVVEMDYWGQGTLVTVSS
VL: DVVMTQSPLSLPVTLGQPASISCNSSQSLVHTDGNTYLNWFQQRPGQSPRRLIYKVSNRDSGVPDRFSGSGSDTDFTLQISRVEADDVGVYYCMQGSHWPYTFGQGTKLEIK
notes: IgG; V domains only
Take B17: the EC50 amounted to 2.9 ng/mL.

B18: C880 (antibody, V domains shown)
VH: QVQLQQWGAGLLKPSETLSLTCAVYGGSFSDYYWSWIRQPPGKGLEWIGENNHSGKTNYNPSLENRVTISVDTSKNQFSLKLTSVTAADTAVYYCARESGSYGTFDYWGQGTLVTVSS
VL: EIVLTQSPGTLSLSPGERATLSCRASQSVSSAYLAWYQQKPGQAPRLLIYGASSRATGIPDRFSGSGSGTDFTLTISRLEPEDFAVYFCQQYAYTIWTFGQGTKVEIK
notes: IgG; V domains only
Take B18: a half-maximal response (EC50) required 2.2 ng/mL.

B19: C899 (antibody, V domains shown)
VH: EVQLVESGGGLVKPGGSLRLSCAASGFTFSNAWMSWVRQAPGKGLEWVGRIKSKTDAETTDYAAPVRGRFTISRDNSKNTLYLEMNSLKTEDTAVYYCTTDADYSDSSGYYVTYYFEYWGQGSLVTVSS
VL: QSALTQPRSVSGSPGQSVTISCTGSNSDVGGYNYVSWYQQHPGKAPKLVIYDVSLRPSGVPDRFSGSKSGITASLTISGLQPEDEAHYYCCSFAGTYTPWVFGGGTRLTVL
notes: IgG; V domains only
In turn, B19 yielded an EC50 of 2.23 ng/mL.

B20: C887 (antibody, V domains shown)
VH: EVQLVESGGDLVQPGGSLRLSCAASGFTFTTYSMSWVRQAPGKGLEWISYINSGSANIHYADSVKGRFTVSRDNAKNSLYLQMNSLRDEDTAVYYCARGDCLSSSCYSLDYWGQGALVTVSS
VL: DIQMTQSPSSLSASVGDRVTITCRASQSITSYLSWYLQKPGEAPKLLIYAASILQSGVPSRFGGNGSGTDFTLTISSLQPEDFATFYCQQTYRSPLTFGGGTKVEIK
notes: IgG; V domains only
B20: the EC50 was 3.2 ng/mL.

B21: C886 (antibody, V domains shown)
VH: B20 VH with T28S, F29V, Y32N, S33A, S35A, S53I, H59Q, V70I, L102T
VL: DIQMTQSPSSLSASVGDRVSITCRASQTINTHLSWYLQKPGEAPRLLVYAASTLHSGVPSRFSGSGSGTDFTLTISSLQPEDFATFYCQQTYRFPLTFGGGTKVEIK
notes: IgG; V domains only
Molecule B21 registered an EC50 of 2.48 ng/mL.

B22: C901 (antibody, V domains shown)
VH: QVQLVESGGGVVQPGRSLRIACGASGFTFSTYDMHWVRQAPVKGLEWVAVISRDGSGKFYADSVKGRFTISRDNSKKTLYLQMDSLRPEDTAMYYCARDFESRTWDPPKYYYALDVWGQGTTVTVSS
VL: DIQMTQSPSSLSASVGDRVTITCRASQSISTYLNWYQQKPGKAPSLLIYAASSLYSGVPSRFSGSGSGTDFSLTISSLQPEDFATYYCQQTYTTPTWTFGQGTKVEIK
notes: IgG; V domains only
As for B22, the EC50 turned out to be 2.01 ng/mL.
